Experiment: soluble on expression in E. coli; label from the status in PepcDB or PDB records

Soluble on expression in E. coli, not soluble:
MGSDKIHHHHHHIETYNPAEVTFPENVAKVLIVNNAVPQPEDAGYEYTLQGERQDTCKAKADSALFDACRTLGEAIVEASYFNDVLLYHDAVRKDNQAFLDTKLTQGQVASLCDETGADAVISIDRLLFDMKKSVGTLGEGYVMGMIDVQMAGVIRSYVPDREAPLATVHMKDSIYWAESADYMPILDKVLPSPENALRGAGKYFGAKVYANFVPHWEKETRWYFTGMGSRWKEASAYAANEKWDMAEDRWSGLYRGTENWKSRAKAASNLALCHEMRGALKEAYEWAHKSYDLFKRNNGDNDKSTKLLELYVQALAERIRSDKKLNVQFGED
MGSDKIHHHHHHKDEDPVLPLEGAKLSVAVKASGTATKAYNPNDVNELEGEAYINNLAVVVFNETGTELLGYKWEALSGAEHSAIIADVPTTKAVRARIIVLANVPRDLLSTVSTYDEFQTRLVDLSSQSQTNLTMSSQVIVTKSALSEEDNYLGYTDLGDQNVDGISDPILLTRVAARIDLVNISTRFAGTPFAGREVRIDAVGIYNMKTKSYYFSEADWGETEAPDAVRNSEDTSFEDLLVNDGTSISNTPFVHYVMENMKSDDHTMIAVKATLRGNSSYQDHTKIFTAVINAGGLQNGYDHNFIRRNYVYRLRIYFDGESFDNIPVTPDPGPGPDPEPEVDTNLNIAVQVVGWGPVMQHPVID
MGSDKIHHHHHHKQTVSSESTEELDDASKVINYYHMSLAVLRHVANAKDINAVLGYMEQTGKVPEVDPIAPPEIAARDTAELLDPGDYFNPEVRQNLKQNYAGLFNVRTQFYDNFNKFLAYKKSKDTAKTAQLLDENYKLSVELSEYKQVIFDILSPLTEQAESELLADEPLKDQIMAMRKMSGTVQSIMNLYSRKHAMDGVRIDLKMAELEKELKAAEKIPAVTGYDEELKNFQSFLSTVKSFMNDMQKARSKGAYSDKEYQAMSEAYEYGLSVI
MGSDKIHHHHHHKRQVSGDESYLDAAPLAELHAPAGMILPITTGDYVIPVTKGSGAVGKALDIRPPAQPLALVSGARTQFSGDTATLLVENGRSSTLWPQVVSVIQAKNYPIEKRDDASQTLTTDWVNWNRLDEDEQYRGRYQISVKPQGYQQAVTVKLVNLEQAGKPVADAASLQRYSTEMMNVISAGLDKTATDAANAAQNRSAATMDVQSAADDTGLPMLVVRGPFNLVWQRLPAALEKVGMKVTDSTRSQGSMAVTYKPLSDSDWRDLGASDPGLASGDYKLQVGDLDNRSSLQFIDPKGHTLTQSQNDALVAVFQAAFNK
MGSDKIHHHHHHKSISNKLVVFDDKEQVIQYSSNSIPVKIELYSKRWGKTSITYNNSLKEFWDIVESMPRSKNFYGSTKIENSPNDIIGTIFYLNGKRSTMCLNHNLKIDDSYYGGERGYAYINRLRNYINDIMCTPSMLASIVNDKNKVIIEDKLSEASKCGSNDKTLIKNEITKLRRISNNEKLQKTITSKGKLNYHIKIYMENSNGSNINLSKIKQDNYDIISISVYENNCAVIRDYGNDTVDTFCMEGNLTNVCKSILKR
MGSDKIHHHHHHLCRKDASQPSMYDLHRLGWNSFQQLCLTIAREVLAQSVKSFLDSNDGGRDGAFCGTWTPTKNETMSGSFVIQCKFTSKPNALLAKEDIAAELPKIRRLTEKGLCDVYVLMTNAGVSGKQEERIAAELTSAGAKNVLILGGTWITDQIRENTRLRTLVPRVYGLGDLSQILDERAYEQARAVLDSLREDLAKVVMTSAYRNAVDALDRHGFVLLIGEPAAGKTTIASMLAMASADKWKSSVLRKR
MGSDKIHHHHHHLFDRYEAGETAVLVHIDFSDDERREDLVELQLLVESAGARSVGVITGSRRAPDRKFFVGTGKAEELAAMVAATEAKVVIFNHALSPAQERNLERVCHCRVLDRTTLILDIFAQRARTHEGKLQVELAQLRHMSTRLIRGWTHLERQKGGIGMRGPGETQLETDRRLLRGRIKNINRRLDKVDKQREQSRRSRKRSDLATVSLVGYTNAGKSTLFNGLTSSDVYAADQLFATLDPTLRKLDLPDGAVILADTVGFIRHLPHDLVAAFKATLQETRQAELLLHIVDCADDNMQDNFDQVQDVLKEIDADEIPQLVVCNKIDLLEDFAPRIDYAEDGTPERVWLSAQKGQGFDLLLQAITELVGNIVLELTLKVPATGGHYIGQMYKLDVIEHKDYDDLGNCIVKIRLLDADWRRMIKQSQGELETFVFEASETDVIL
MGSDKIHHHHHHLFDRYEAGETAVLVHIDFTDEGSREDLAELQLLVESAGARSVGVITGSRRAPDRKFFVGTGKAEELAAMVAATDANVVIFNHALSPAQERNLEHLCRCRVLDRTTLILDIFAQRARTHEGKLQVELAQLRHMSTRLVRGWTHLERQKGGIGLRGPGETQLETDRRLLRGRIKNINRRLEKVDKQREQSRRARQRSDMAAVSLVGYTNAGKSTLFNTLTSAEVYAADQLFATLDPTLRKLELPDGAAILADTVGFIRHLPHDLVAAFKATLQETREADLLLHVIDCADEKMRDNIEQVQAVLKEIDADEIPQLIVCNKIDLVEGIKPAIDRDDTGKPFRVWLSAQQNQGLDLLRQAVQELVGNVIAELTLKIPATAGHYLGQFYRLDAIQQKEYDDLGNCILSVRLPDADWRRLAKQSQGELETFIVDTATDRVVC
MGSDKIHHHHHHLNILVTNDDGIMSPGIILLAEALSEDHEVLVVAPDVERSATGHAITIRTPLWAKEVKVGNKNIGYAINGTPADCVKLGLLAISDRKIDLVISGVNKGQNMGIDVLYSGTVSGALEGAVTDTPSIAVSSSDWSNPEYETAARFMVNFLKIYDVSKMPDFTALNINVPSIKYEELKGWKVTRQSRRRYKDYFEKRKDPYGNNYYWIFGEVVEDECSTDCDFNAVKSNFVSITPLHAIMTDKKYFDELKEISEGWSE
MGSDKIHHHHHHLNQERFDYRTGILASPSEVDAAEWNALLAQQPQPTPFLRHEFLSALHATRCAVADTGWAPQFVTLTDPRTDKLVAAAPVYLKGHSYGEYVFDWAWADAYKRNGLPYYPKLLCAVPFTPVQGNRLLSADTHALRHLAATLMAFAEQADVSSLHVLFPTETEANALTEMGMMQREGVQFHWLNDGYRDFDDFLSTLEQKKRKNIRAERRKVHEAGVTMRRIRGEDIQDADWRFFSKCYRQTYREHFSSPYLNLDFFRMIGESMPENLLLVIAEYEGKPIASSLVVYQRDAKTGGTLYGRYWGALEHVPCLHFETAYYQPLEFCIEEKLGAFEGGAQGEHKMARGFLPTVTRSAHWLAHPAFADAVGHFLDNEKNSIHAYVDELREHNPFKG
MGSDKIHHHHHHLNVYHASLEEAQADPRLKGLQGASPFERLDWLALLANECLDPARARLSVVTSGECMAALPWIEREGRIDALANWYSFFVSPLGDSALLSRIVEALPHGRAAFAPLPEEDARLLARAFRNAGWCTLAAPCDVNHVLPVEGRSFAQYWAERPGALRETVRRKSRKGEVSLRILTEFSPEDWEAYETIYRLSWKPGEGSPAFLRKWAEADGEAGRLRLGIAEIDGAAVAAQFWTVEGGTAYIHKLAHDERFRKSSPGTLLTAAMFEHVIDRDRVDLIDFGTGDDPYKRDWMDDVRSRWSVQAWRPGAVRHWPSLALALARTLAGQIMRPLVSRNGDG
MGSDKIHHHHHHLPENAASLGCGAWKGDTVSIEAGGMNRRVGEIVGQVLARLRPKAKSLIITVYGDAISHHGGSAWLGSVINLVEPLGLNERIVRTSVFRLSKEAWLSSMQIGRRSYYRLTEMGRRRFEAAHNRIYHYNGKPWDGRWTLAVTNIDGMDAERRDSLRRDLGWLGFGQLASGVMVHPDPDQSAVRQALAEAGVQDRAVMMTAAAEDWVTPEALRDLIHTCWDLERLASDYNEFLDTFRPLWQVLSGNGDLDPQMCFVVRTLLMHGYRRALLRDPMLPDELLPANWPGTSARVLCRNLYRLVQAAAETHVMGMLETAEGPVPEAHPAYYTRFGGLQSAD
MGSDKIHHHHHHLPNLQEIFKKDNFIAWDDKVYPSILNFGAPLPKPLPRIAPNNAPLARLFIEFLYYYSMFNFKENYIGARPVMVMDRRTSQNNMVRSSTNKEVCIQDPFDEHNPGRTVRTLNRIKDVMRSTYQKFLPVEGSEFTFPTLDDIINMSPEVPKPSRAEVRNFRAEATEVNRVGLGVYCRNSFV
MGSDKIHHHHHHLRFIIVSGPPSAGKTAVMIHAIRHLLKDGIKVAACKIDCLKTSDDKNYRALGIPVAVGLSEYLCPDHFFVANLEEIYAWGSYYGTEVLILETAGLCHRCAPAIQGCLSICVIDNLSGIDTPQKVGPMLSTADVVLISKGDVVSQAEREVFRQRVEMVNPDAAVLSVNGLNGQGSLKLKKIIMESASVKRIEGQELRCSMPAAICSYCTGETMIGSSYQMGNVKKLDFGKF
MGSDKIHHHHHHLTNLLVIGATGNIGQPLIRDLQDDPDVHLFAGVHNSEHAKQALNGLKVQVRRFDFLDPATFEQALADIDKVFFVRPPQLAKPKEDMYPFLDALVARHVKQVVFVSLLGVAHNPMTPHHQIEKRIVELGLPYTFIRPSFFMQNLNTTHQADIVGHRDLFVPAGHARTSFIDTRDIGATAAVILRDPAYIGQKLDITGAQALTYADAAQIMTMELGVPITYSKPSLWRFRKVMLQRGLPKNYVNVMVMLYLITQLGNAKTVTTTLPNVLGRPAISFEQYVHDYRAEFLPKPLS
MGSDKIHHHHHHLTQLAQCSTSSISQSSIYLPYRDGQLHLRQLLPSAPDFSKTPILMLHGAMSNGRVFYSQSGRGLGCFLAKAGFVVYVLDTAGRGLSLPKIDRDSTLGQGEVIREQLPLVQQTILDLHQKACQEQTAQYDRKAVAPSQVHWCAHSWGGVLMASSLARYPELQQSVRSLLTFGSKRTIRVKSFKKWLMVDVFWNRLAPGLAMGQGYLAADKLRIGMDNESRASLVQSIDWVQGDWIDHDDGFDYAKAAKRADWPPAWFISGLNDTVLGHPEDVADMVEECGFKRVKSTLLSKENGFKHDYGHADMLTHLDATSDHFPKISDWYLSFDLAVLNG
MGSDKIHHHHHHLYVPLLIRQQYIRSGPDYRFSEPVSFLDIKQTFGFSHVRVGRWVTREESRIAANLVFDSLADLAFILKLPPLTLGLRQTLSLAFGHGGQKGVQAHYAPATRELALAKNAGAGALAHEFWHAFDHYIAPKAFNLSEGHFLCASDLWLADSPLIKHPLNLRLSEIFKVTLLSPDGKEPSDYVRRALALDKRYGTRYFSQPTEMMARAFEACIESYRDISNPYLVSGTSFSAMAKEGAYPDELHRQRIFTALLDYFEPLGIALAK
MGSDKIHHHHHHMAATLKLSQLISALSYALDITEGQPEGHCVRSCWIGMHIGRALGLAPQELWDLYYAILLKDLGCSSNAARICELYRTDDRSFKQDFKQVGASLPQMLGFVFSHTGTHAAGWRERAASVVQVLRRGKEMADELINTRCHRGADIARQLRFNENVANGIQYLDEHWDGSGRPLGLQRDAIPLNARIALLAQVIDVFHVTHGRHAALDEAVRRGGGWFDPELVAAFRGASRDTAFWQRLESDDIERAVLALEPAQCTVPLDEDYMDEIAEGFGQVVDSKSPFTAGHSQRVGHYADRIGEELGLSPQRRRWLKRGALLHDVGKLGVSNTILDKPGKLTPEEWEAVKLHASHTETILGRIESFAELAKVAGAHHERLDGKGYPRGLMASEIALETRVITTADIFDAIHAARPYHPENPVPETLDIMRKNLGSALDPACFEALEAVLREEDALESDAICLT

— the DeepSol protein solubility set
